Results reported in paper PMC10786891, “Massively parallel profiling of RNA-targeting CRISPR-Cas13d”.
Residue numbers refer to the chain shown, from its start. In names and notes the source's numbering stands.

T1: EsCas13d, nuclease-dead (Eubacterium siraeum, UniProt B0MS50, R295A;H300A;R849A;H854A)
T1 sequence: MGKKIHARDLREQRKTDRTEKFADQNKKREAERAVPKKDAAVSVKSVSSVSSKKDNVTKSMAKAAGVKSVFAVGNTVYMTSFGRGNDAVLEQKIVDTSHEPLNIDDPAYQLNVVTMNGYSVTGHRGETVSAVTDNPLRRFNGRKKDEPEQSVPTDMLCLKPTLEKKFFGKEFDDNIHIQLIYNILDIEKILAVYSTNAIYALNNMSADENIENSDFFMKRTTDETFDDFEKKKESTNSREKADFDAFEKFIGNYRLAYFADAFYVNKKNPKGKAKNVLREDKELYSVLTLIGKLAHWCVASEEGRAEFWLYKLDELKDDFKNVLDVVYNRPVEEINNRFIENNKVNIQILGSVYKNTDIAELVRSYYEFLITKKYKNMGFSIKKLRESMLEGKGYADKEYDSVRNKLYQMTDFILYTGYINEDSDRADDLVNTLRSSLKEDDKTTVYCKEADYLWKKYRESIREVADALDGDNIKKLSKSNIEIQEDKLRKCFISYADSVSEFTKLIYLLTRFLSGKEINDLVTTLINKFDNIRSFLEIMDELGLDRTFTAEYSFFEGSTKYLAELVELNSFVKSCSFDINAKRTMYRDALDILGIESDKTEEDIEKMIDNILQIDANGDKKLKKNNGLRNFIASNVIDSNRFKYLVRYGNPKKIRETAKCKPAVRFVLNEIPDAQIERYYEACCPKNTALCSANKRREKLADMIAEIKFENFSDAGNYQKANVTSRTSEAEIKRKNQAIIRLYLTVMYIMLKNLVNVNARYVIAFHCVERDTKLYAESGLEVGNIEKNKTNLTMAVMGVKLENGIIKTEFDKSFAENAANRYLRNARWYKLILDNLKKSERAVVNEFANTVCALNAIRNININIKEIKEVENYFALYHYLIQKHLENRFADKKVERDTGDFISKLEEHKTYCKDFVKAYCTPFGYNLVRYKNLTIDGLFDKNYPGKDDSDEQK

B1: target 1 insA 3' of 11,insA 3' of 7 (mixed)
RNA 1: CACCCGUGCAAAAAUGCAGGGGUCUAAAACUGAGCGGAUAACCUCUCUAUGG
RNA 2: GGGAAUGGAUCCACAUCUACGAAUUCGUACCAUAGAGAGGUAUAUCACGCUCACCGAGAUCGGAAGAGCACACGU
B2: target 1 insA 3' of 19,insA 3' of 19 (mixed)
RNA 1: B1 RNA 1
RNA 2: B1 RNA 2 with G35A, G40A, U41G, A42G, A44U, U45A, C46U, A47C
B3: target 1 G5C,U11G (mixed)
RNA 1: B1 RNA 1
RNA 2: GGGAAUGGAUCCACAUCUACGAAUUCGUACCAUAGAGAGGGUAUCCCCUCACCGAGAUCGGAAGAGCACACGU
B4: target 1 G5U,G13U (mixed)
RNA 1: B1 RNA 1
RNA 2: B3 RNA 2 with G39U, G41U, C47U
B5: target 1 C4G,C6U (mixed)
RNA 1: B1 RNA 1
RNA 2: B3 RNA 2 with G41U, C46U, C47G, C48G
B6: target 1 U11G,G12C (mixed)
RNA 1: B1 RNA 1
RNA 2: B3 RNA 2 with G40C, C47G
B7: target 1 insA 3' of 17,insC 3' of 17 (mixed)
RNA 1: B1 RNA 1
RNA 2: B1 RNA 2 with G37C, G40A, U41G, A42G, A44U, U45A, C46U, A47C
B8: target 1 insC 3' of 22,insA 3' of 2 (mixed)
RNA 1: B1 RNA 1
RNA 2: GGGAAUGGAUCCACAUCUACGAAUUCGUACCCAUAGAGAGGUUAUCCGCUCAACCGAGAUCGGAAGAGCACACGU
B9: target 1 insA 3' of 19,insC 3' of 8 (mixed)
RNA 1: B1 RNA 1
RNA 2: B1 RNA 2 with G35A, A36G, G37A, A38G, G39A, U41G, A42U, A47C
B10: target 1 insU 3' of 20,insU 3' of 6 (mixed)
RNA 1: B1 RNA 1
RNA 2: B8 RNA 2 with C32A, A33U, G48U, C49G, U50C, C51U, A52C
B11: target 1 insG 3' of 16,insC 3' of 5 (mixed)
RNA 1: B1 RNA 1
RNA 2: B1 RNA 2 with A38G, G39A, U41G, A42U, A47C, C48G, G49C
B12: target 1 insU 3' of 15,insA 3' of 10 (mixed)
RNA 1: B1 RNA 1
RNA 2: B1 RNA 2 with A38U, G39A, U41G, A42U, U45A, C46U, A47C
B13: target 1 U11C,G12A (mixed)
RNA 1: B1 RNA 1
RNA 2: B3 RNA 2 with G40A, G41C, C47G
B14: target 1 insU 3' of 20,insU 3' of 15 (mixed)
RNA 1: B1 RNA 1
RNA 2: GGGAAUGGAUCCACAUCUACGAAUUCGUACCAUUAGAGUAGGUUAUCCGCUCACCGAGAUCGGAAGAGCACACGU
B15: target 1 insU 3' of 18,insA 3' of 11 (mixed)
RNA 1: B1 RNA 1
RNA 2: B14 RNA 2 with U34A, A35U, U39A, A40G, G42U, U43A
B16: target 1 insC 3' of 8,insC 3' of 5 (mixed)
RNA 1: B1 RNA 1
RNA 2: B1 RNA 2 with A42U, U43A, A44U, U45C, A47C, C48G, G49C
B17: target 1 insA 3' of 22,insG 3' of 19 (mixed)
RNA 1: B1 RNA 1
RNA 2: B14 RNA 2 with C31A, A32C, U33A, A35G, G36A, A37G, G38A, U39G
B18: target 1 A1G,G15C (mixed)
RNA 1: B1 RNA 1
RNA 2: B3 RNA 2 with G37C, G41U, C47G, A51G
B19: target 1 insU 3' of 13,insU 3' of 4 (mixed)
RNA 1: B1 RNA 1
RNA 2: B1 RNA 2 with G40U, U41G, A42U, A47C, C48G, G49C, C50U
B20: target 1 insC 3' of 22,insG 3' of 3 (mixed)
RNA 1: B1 RNA 1
RNA 2: B8 RNA 2 with C51G, A52C
B21: target 1 insC 3' of 8,insU 3' of 6 (mixed)
RNA 1: B1 RNA 1
RNA 2: B1 RNA 2 with A42U, U43A, A44U, U45C, A47C, C48U
B22: target 1 insA 3' of 22,insG 3' of 1 (mixed)
RNA 1: B1 RNA 1
RNA 2: B8 RNA 2 with C31A, A53G
B23: target 1 insG 3' of 14,insU 3' of 12 (mixed)
RNA 1: B1 RNA 1
RNA 2: B1 RNA 2 with U41G, A42U, A44U, U45A, C46U, A47C
B24: target 1 insC 3' of 19,insA 3' of 7 (mixed)
RNA 1: B1 RNA 1
RNA 2: B1 RNA 2 with A34C, G35A, A36G, G37A, A38G, G39A, U41G, A42U
B25: target 1 insA 3' of 6,insA 3' of 6 (mixed)
RNA 1: B1 RNA 1
RNA 2: B1 RNA 2 with A42U, U43A, A44U, U45C, C48A
B26: target 1 insG 3' of 14,insA 3' of 11 (mixed)
RNA 1: B1 RNA 1
RNA 2: B1 RNA 2 with U41G, A42U, U43A, A44U, U45A, C46U, A47C
B27: target 1 C7U,G17A (mixed)
RNA 1: B1 RNA 1
RNA 2: B3 RNA 2 with G35A, G41U, C45U, C47G
B28: target 1 insA 3' of 8,insG 3' of 8 (mixed)
RNA 1: B1 RNA 1
RNA 2: B1 RNA 2 with A42U, U43A, A44U, U45A, C46G, A47C
B29: target 1 insG 3' of 19,insU 3' of 12 (mixed)
RNA 1: B1 RNA 1
RNA 2: B14 RNA 2 with U34G, U39A, A40G, G42U

Target: T1, EsCas13d, nuclease-dead
Assay: crRNA (strand 1, pre-loaded); Mg2+; 40 mM Tris-HCl pH 7.5, 150 mM NaCl, 6 mM MgCl2, 1 mM DTT, 0.1% Tween-20, 0.2 mg/ml BSA; 25 C; 10 min per concentration, then washed
Conditions: tags: His6-TwinStrep-SUMO cleaved; N-terminal SNAP kept (SNAP-Surface 488); label: 3' end held by stalled T7 RNA polymerase

Row | Binder | Kd [nM]
1 | B1 | 14.3 ± 0.7
2 | B2 | 22.1 ± 2.4
3 | B3 | 37 ± 5
4 | B4 | 64 ± 8
5 | B5 | 3.83 ± 0.2
6 | B6 | 17 ± 1
7 | B7 | 41.4 ± 2.9
8 | B8 | 24 ± 4
9 | B9 | 34 ± 4
10 | B10 | 15.4 ± 0.6
11 | B11 | 52 ± 5
12 | B12 | 20.2 ± 1.1
13 | B13 | 8.9 ± 0.4
14 | B14 | 19.1 ± 1.6
15 | B15 | 68 ± 6
16 | B16 | 14.6 ± 0.7
17 | B17 | 51 ± 7
18 | B18 | 58 ± 9
19 | B19 | 21 ± 2.6
20 | B20 | 11 ± 0.7
21 | B21 | 21.1 ± 1.5
22 | B22 | 11.2 ± 0.4
23 | B23 | 16.4 ± 2.4
24 | B24 | 26.6 ± 2.4
25 | B25 | 17.4 ± 0.9
26 | B26 | 39.2 ± 2.6
27 | B27 | 34 ± 4
28 | B28 | 33.1 ± 2.6
29 | B29 | 48 ± 5
